Laboratory results as given in the RNAGym collection of RNA variant scans (doi:10.1073/pnas.2313332121).
Variants at the floor of the assay were thinned out.

B1: TPR 5TU (parent)
chain: GGAUCUUCUCGAUCUAACAAAAAAGACAAAUCUGCCACAAAGCUUGAGAGCAUCUUCGGAUGCAGAGGCGGCAGCCUUCGGUGGCGCGAUAGCGCCAACGUUCUCAACUAUGACACGCAAAACGCGUGCUCCGUUGAAUGGAGUUUAUCAUG

Variants of: B1
Assay: polymerase ribozyme fitness, log enrichment relative to wild type (log ratio); higher = more active; in vitro selection for triplet polymerase activity
Summary of the method: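 Mutant libraries were PCR-built and transcribed for each subunit of a heterodimeric triplet polymerase ribozyme and selected for one round in triplicate at −7 °C, frozen, before gel excision of extended constructs and streptavidin-bead capture. Input and output libraries were Illumina-sequenced, keeping genotypes with ≥10 input reads and ≥1 read per output. Fitness is a logarithmic ratio of genotype to wild-type enrichment, in base 2, using inverse-variance-weighted replicate averages.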

Point of comparison: A17C U55A U56A C85G A115G, “polymerase ribozyme fitness (log ratio)” value -3.1. Against it:
- A16U G92U — higher, -2.29
- A16U U53C A73G G94C A150C — lower, ≤ -4.2
- A17C C57A C114U — higher, -1.86
- A17C A37C A52U G83U — within 0.2 log units, -3.08
- A17G A23G G48C A91U U104A — lower, ≤ -4.2
- A16U G88C — lower, ≤ -4.2
- A16U U55A A91G G117U — lower, ≤ -4.2
- A17C U82A C85A C93U — lower, ≤ -4.2
- A17C A40G C54A G83A G124A — lower, ≤ -4.2
- A16U U139G G140U — lower, ≤ -4.2
- A16U U31A C38G A41C G62C A120U A142G A147U — lower, ≤ -4.2
- A16U U55G C87U — higher, -2.67
- A17C A39U G58A C95A G141C — higher, -2.82
- A17C A23U U104C — lower, ≤ -4.2
- A17G C32A C51A U55A A60C G74A G81A U90G C95A — lower, ≤ -4.2
- A17C A40U U53A C76G C93U U146G — lower, ≤ -4.2
- A17C A26C C87U — higher, -1.83
- A17G C36G C79A C95U A97U G117U G126U — lower, -4.08
- A17G A49U G71C C79A A106U — lower, ≤ -4.2
- A17G A37U A47U C85U — higher, -1.62
- A16U G83C C99A — lower, -3.97
- A17C U53G U55A A121G — higher, -1.71
- A17G A60G C85G A89U — higher, -2.31
- A17G A29C C32G G48C — lower, ≤ -4.2
- A17G A19U C93U U102C G136A U148A — lower, ≤ -4.2
- A17C A21U A29U U53G A73G G94A — lower, ≤ -4.2
- A17G A52G C85G — higher, -2.03
- A17C A40C G83C U109G — lower, -3.6
- A17C C54A — higher, -1.11
- A17G C18A C69G U101G C105U A120U A142U — higher, -1.71
- A17C C35U G74A C76A U78G — lower, ≤ -4.2
- A17G A21U C51U U53A C79U G94A A115G — lower, ≤ -4.2
- A17C A23U G59U G84A U90C U151A — lower, ≤ -4.2
- A17C G59A A60C G81C C95U C116U — higher, 0.238
- A16U U31A G83A C105U — higher, -1.17
- A17G A113C — higher, -2.83
- A16U G58A C93A — lower, -3.46
- A17G C35A G67C C96U C114U C116U — lower, ≤ -4.2
- A17G A23C A97U C114U — lower, ≤ -4.2
- A17C A24G A39U U56A C103G G136U — lower, ≤ -4.2
- A17C G25A G62U G117U — higher, -2.71
- A16U U56A G83A U109C U111G — lower, ≤ -4.2
- A17G A49C G59U G92A A113G A119U — lower, -4.03
- A17G A20U C57G G84U C93A C96G A119U G141A — lower, ≤ -4.2
- A17C A91U — lower, ≤ -4.2
- A17G A52U G83A C95U — lower, -3.91
- A17C U61G C85U G126A G140U U151A G152C — lower, ≤ -4.2
- A17G A21G A29G G81A C93G G112U C118A U135A — lower, ≤ -4.2
- A17G A20C A24C U44C A66U C103U U134G — lower, ≤ -4.2
- A17G C18G A40C C85G A106U G124U C125U — lower, ≤ -4.2
- A17C A19U — higher, 0.475
- A17G A19U U53A U56G A60U C69G U111G A142G — lower, ≤ -4.2
- A17C U31C G50C C51A — higher, -0.997
- A17G A49U G83U — lower, -3.31
- A17G C35U U53A G94A — higher, -1.28
- A17C A37C C93G — higher, -2.89
- A16U U56A G62A U82G C85U A142G — lower, -4.16
- A17C U33C G42C C51A U53A U139G A142G — lower, ≤ -4.2
- A17G C27A — lower, ≤ -4.2
- A17C A47C C95U C116U — higher, -0.195
- A17C C18G G58A C69G C85U — higher, -2.39
- A17G A37C A91G C99A A107G U139G G143U U148C — lower, ≤ -4.2
- A17C A29C A66U G67A A91G C96U A115G C116A — lower, ≤ -4.2
- A17C A21U G25U G84A — within 0.2 log units, -2.95
- A17C G92C — higher, 0.012
- A17C A20C U53G G84A — higher, -2.28
- A17C A20C C108G — lower, ≤ -4.2
- A16U G124U — higher, -2.37
- A17C G68C C85G C125U G143C — lower, ≤ -4.2
- A16U G68A C87A G94C G141A — lower, ≤ -4.2
- A16U U44A G71C C96G A106U U127C G133U G141C U148C — lower, ≤ -4.2
- A17C G88A A91G U148A — lower, -4.03
- A16U G70C G81U A89G — lower, ≤ -4.2
- A16U U56A C96A — within 0.2 log units, -3.23
- A17C A28U G46U A98U A107G A113G G133U — lower, ≤ -4.2
- A17G C35U G83A — higher, -0.796
- A17C U44G G88A C95G C103U G141C — lower, ≤ -4.2
- A16U U44G G48A C87U U102G C131U C132G — lower, ≤ -4.2
- A16U U61A C95U — within 0.2 log units, -3.06
- A17C G62U C93G — lower, -3.31
- A17G A28U G71A A121G — lower, ≤ -4.2
- A17G A22C U61A G84U C96U U109A U111A G141A — lower, ≤ -4.2
- A16U U33C C38U G140U — lower, ≤ -4.2
- A17C G59C U102G C123A — higher, -2.05
- A17G A47C C87A G88C A91U U111A — lower, ≤ -4.2
- A17G C27A C35G C75A G86C A142G — lower, ≤ -4.2
- A17C C95A C103G C108G — lower, ≤ -4.2
- A17G A30G C36A C99A — lower, ≤ -4.2
- A17C C27A A52G A60U C69U C85A C95G C125A — lower, ≤ -4.2
- A17C C125G G126A — lower, -3.65
- A16U U55G C85G C103U A121U — lower, -4.13
- A17C A21U C51U G59C C95U A106U G136C U151G — lower, ≤ -4.2
- A16U G84U G86U C93G U144C — lower, -3.51
- A17C A47C G94C — higher, -0.464
- A17C G48C C93G — within 0.2 log units, -3.01
- A17G C35A A40C G67U C96A C129G — lower, ≤ -4.2
- A16U U61G G81A — higher, -1.91
- A17G A21G C96G — higher, 0.392
- A17C A40G G50C C57U C108U G133C — lower, ≤ -4.2
- A16U U31C C38U C114U — lower, -3.95
- A16U U53A G80U C85U G152U — lower, ≤ -4.2
- A17C A30G C79G C87G C96G C105A — lower, ≤ -4.2
- A16U G83A A106G A107C C118U C123G C129G A150G — lower, ≤ -4.2
- A17C G84C A142G — within 0.2 log units, -3.21
- A16U G81A — higher, -1.95
- A17C A47U G58A G83U G94A G126U — lower, ≤ -4.2
- A17C C32U — higher, -1.61
- A17G A89G — higher, -0.582
- A17C A28U U44C A52U G94U A97G A142G — lower, ≤ -4.2
- A17C C99A — higher, -0.000978
- A16U U33A G42A C93U G140A — lower, ≤ -4.2
- A17C C95U A119U A150G — higher, -1.7
- A17G C35U C36U C95U — lower, ≤ -4.2
- A17C A21G A40U G86U A122U — higher, -1.48
- A17C G74C C87U G92C C105G G136U — lower, ≤ -4.2
- A17C C36U A47G C54A C85A C118A U127G U134C U151A — lower, ≤ -4.2
- A17C C32G C54A C76G G80A C93A C96A U111A — lower, ≤ -4.2
- A17G A39C A40C A73G G94C U134G — lower, ≤ -4.2
- A17C A26G A41C C54A C72U C87A G100C G143U — lower, ≤ -4.2
- A16U G50C U56A G84C A97U U101A A113C A119G G133U A137U — lower, ≤ -4.2
- A16U U31A A64U C85U A91G C131A — lower, ≤ -4.2
- A17C U102A — higher, -0.663
- A17G A40U U55A U56A C103A A119G U134A — lower, ≤ -4.2
- A17G A39C G68C C93G — lower, ≤ -4.2
- A17C A110U — lower, -4
- A17G A39G U56A C85G A115G — lower, -3.92
- A16U G133C U146A — lower, -3.79
- A17G C27G A66G A107G A115C — lower, ≤ -4.2
- A17G A49C C87G C123G G141A — lower, ≤ -4.2
- A17C C38A U55G G86U C116G A122G — within 0.2 log units, -2.93
- A17C A19U G58A A97G U102G A119G — lower, -3.63
- A16U U56G G84A U102A G141U — lower, -3.81
- A17C A89U — higher, 0.471
- A16U G58U C69U U78G G80C C96A G141U — lower, ≤ -4.2
- A17G A21C U44A A91C C108U — lower, ≤ -4.2
- A17C A41U U56A C99U A121G A147G — within 0.2 log units, -3.04
- A17G A24U A26U G58A — lower, -4.02
- A17C C18A C57A C95U C99G A113G G133A G152U — lower, -4.06
- A16U G86A A91U A106G C108U C129A — lower, ≤ -4.2
- A16U G74A G84U U90C C118U A121U — lower, ≤ -4.2
- A17C G50A G84U G143C U144G — lower, ≤ -4.2
- A17G A21G C57U C96A A137U A138G — lower, ≤ -4.2
- A17C G81U C85A C95U C105G A115U — within 0.2 log units, -3.03
- A17G A29U G67U G100A C123G C132G — lower, ≤ -4.2
- A16U U53A C75A C93A C103G U130A — lower, ≤ -4.2
- A17C A19C A73G C96U C123U C125G — within 0.2 log units, -3.23
- A17G C36U C93G — lower, -3.8
- A17G A29C A107U U135G — lower, ≤ -4.2
- A16U G143C — lower, -3.63
- A17C G133A U144A A147C — lower, -3.99
- A17G A147U — higher, 1.55
- A17G C18A G84C C93U — lower, -3.84
- A17C C57U U82C — higher, -0.0541
- A17G A39C A107U — lower, ≤ -4.2
- A16U G58U — higher, -2.34
- A17G A23U A26U C116G A138C A142C — lower, ≤ -4.2
- A17G A23U U55G A66C — lower, ≤ -4.2
- A17C C38A A47G G92C — higher, -0.622
- A17C G133A — within 0.2 log units, -3.15
- A16U G94C — higher, -2.55
- A17G C18G U31G G68A C87U G133U — lower, ≤ -4.2
- A17C U55A G59A A60G C96A G143U — lower, -3.41
- A17C C36U G68C G86A U139A — lower, ≤ -4.2
- A17G A20C A30G G46A G59U G67C G68U G70U C96G — lower, ≤ -4.2
- A17C A26U A49C — lower, ≤ -4.2
- A17G A22G U82C C99A — higher, -2.88
